Measured values as given in paper PMC6117920, “Chitinase 3-like 1-CD44 interaction promotes metastasis and epithelial-to-mesenchymal transition through β-catenin/Erk/Akt signaling in gastric cancer” (Journal of Experimental & Clinical Cancer Research : CR, 2018).

Columns and labels:
[1] = biological target: T1, recombinant human IL-13Rα2 ECD (human, UniProt Q14627 27-343); assay: BLI; Octet K2; CHI3L1 or IL-13Rα2 ECD immobilised on AR2G biosensor by amine coupling; CD44v3 peptide (15.6, 31.1, 62.5, 125, 250 μM) in the mobile phase; 20 mM HEPES, 150 mM NaCl, 0.05% Tween-20, 1 mM MgCl2 (or 5 mM EDTA); pH 7.4 in the results (pH 7.5 in the methods); heterogeneous ligand model; settings: both partners purified
T1 construct: Interleukin-13 receptor alpha 2, human, extracellular domain; also called rhIL-13Rα2 ECD; Interleukin-13 receptor alpha 2; source: bought: Sino Biological (Cat. #10350-H08H-20)
T1 sequence (looked up): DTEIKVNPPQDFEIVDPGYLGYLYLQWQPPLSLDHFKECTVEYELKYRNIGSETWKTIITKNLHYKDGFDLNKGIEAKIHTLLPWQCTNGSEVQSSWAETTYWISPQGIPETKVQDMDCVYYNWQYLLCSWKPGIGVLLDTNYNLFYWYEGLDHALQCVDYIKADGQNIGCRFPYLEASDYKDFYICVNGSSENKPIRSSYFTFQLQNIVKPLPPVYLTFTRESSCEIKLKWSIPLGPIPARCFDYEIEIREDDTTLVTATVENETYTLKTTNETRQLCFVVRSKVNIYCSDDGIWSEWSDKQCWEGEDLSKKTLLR

recombinant human CHI3L1 = biological target: T2, recombinant human CHI3L1 (human, UniProt P36222 22-383); assay: as above; settings: both partners purified
T2 construct: Chitinase 3-like-1 (CHI3L1, YKL-40), human, recombinant; also called rhCHI3L1; RhCHI3L1; source: bought: R&D Systems (Cat. #2599-CH)
T2 sequence (P36222 22-383): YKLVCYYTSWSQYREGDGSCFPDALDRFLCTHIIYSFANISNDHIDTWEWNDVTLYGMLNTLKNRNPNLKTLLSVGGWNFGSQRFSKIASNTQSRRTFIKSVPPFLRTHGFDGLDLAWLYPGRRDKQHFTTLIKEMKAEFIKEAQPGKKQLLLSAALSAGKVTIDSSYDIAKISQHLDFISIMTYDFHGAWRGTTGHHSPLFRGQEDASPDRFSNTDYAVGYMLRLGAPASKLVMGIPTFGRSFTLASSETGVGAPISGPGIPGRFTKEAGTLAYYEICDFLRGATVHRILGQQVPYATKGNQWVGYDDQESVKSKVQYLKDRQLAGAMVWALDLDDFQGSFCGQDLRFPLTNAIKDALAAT

Kd [1]: 563 ± 15.9 µM
koff [1]: 0.0162 s⁻¹
kon [1]: 28.8 ± 7.66 M⁻¹ s⁻¹
Kd (recombinant human CHI3L1): 443 ± 21.4 µM
koff (recombinant human CHI3L1): 0.013 s⁻¹
kon (recombinant human CHI3L1): 29.4 ± 1.39 M⁻¹ s⁻¹
B1: CD44v3 peptide (peptide)
peptide: GWEPNEENEDERDRHLSFSGSGIDDDEDFISSTI
notes: peptide fragment of the v3 domain of CD44; contains the SGSG heparan sulfate assembly motif; also called peptide fragment of CD44v3 domain; source: synthetic peptide (ChinaPeptides Co., Ltd.)
